Measured values reported in publication PMC8833744, “Strategic Decoy Peptides Interfere with MSI1/AGO2 Interaction to Elicit Tumor Suppression Effects” (Cancers, 2022).

Target: T1, recombinant His-tagged AGO2 (UniProt Q9UKV8 1-859)
T1 construct: AGO2 (argonaute 2); Detected on the array by an HRP-conjugated 6xHis antibody; amine-coupled to a CM5 chip in the SPR; also called His-AGO2; AGO2 recombinant protein; source: recombinant, purified
Test: SPR; Biacore T200; His-AGO2 immobilised on a CM5 chip by amine coupling (~7000 RU); peptides 20 to 1280 nM in HBS-P (10 mM HEPES, 150 mM NaCl, 0.005% T20, pH 7.4), 30 µL/min; Langmuir 1:1 model
Conditions: both partners purified

T1 sequence (Q9UKV8 whole entry): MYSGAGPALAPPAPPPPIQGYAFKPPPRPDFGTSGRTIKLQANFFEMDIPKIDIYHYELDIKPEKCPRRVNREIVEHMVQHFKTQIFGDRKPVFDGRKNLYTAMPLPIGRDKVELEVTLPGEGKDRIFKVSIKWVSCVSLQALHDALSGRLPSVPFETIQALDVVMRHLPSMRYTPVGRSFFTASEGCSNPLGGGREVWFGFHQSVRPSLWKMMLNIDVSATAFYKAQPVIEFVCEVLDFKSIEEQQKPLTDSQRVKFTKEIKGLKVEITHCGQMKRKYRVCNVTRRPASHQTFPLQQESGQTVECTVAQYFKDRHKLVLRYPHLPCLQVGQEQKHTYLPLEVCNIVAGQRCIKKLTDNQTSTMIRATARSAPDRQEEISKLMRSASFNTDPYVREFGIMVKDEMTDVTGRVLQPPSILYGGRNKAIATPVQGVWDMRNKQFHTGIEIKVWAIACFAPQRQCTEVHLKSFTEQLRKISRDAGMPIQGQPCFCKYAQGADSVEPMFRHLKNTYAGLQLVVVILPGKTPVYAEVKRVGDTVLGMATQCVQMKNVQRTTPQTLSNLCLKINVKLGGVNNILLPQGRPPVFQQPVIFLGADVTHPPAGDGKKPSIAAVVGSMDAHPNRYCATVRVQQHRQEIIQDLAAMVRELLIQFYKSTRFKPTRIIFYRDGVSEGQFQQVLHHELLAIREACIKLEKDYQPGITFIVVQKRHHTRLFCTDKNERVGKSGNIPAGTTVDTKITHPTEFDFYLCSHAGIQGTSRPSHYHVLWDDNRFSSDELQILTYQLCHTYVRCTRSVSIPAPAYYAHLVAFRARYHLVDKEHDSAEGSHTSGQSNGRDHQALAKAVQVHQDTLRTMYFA

Binder | Kd
HSLGGPLIATAFTNG [Pep#26 (decoy peptide as used in the SPR)] | 674 nM
YQFPEFRVERTPLPS [Pep#11 (decoy peptide as used in the SPR)] | 515 nM
